Test results taken from patent US20080175829A1, “METHOD FOR INDUCING NEURAL DIFFERENTIATION” (priority 2004, published 2008).

B1: GDNF: glial cell line-derived neurotrophic factor, a potent survival factor for many CNS neuronal cell populations (R&D) (protein, UniProt P39905 78-211, looked up)
Glial cell line-derived …: SPDKQMAVLPRRERNRQAAAANPENSRGKGRRGQRGKNRGCVLTAIHLNVTDLGLGYETKEELIFRYCSGSCDAAETTYDKILKNLSRNRRLVSDKVGQACCRPIAFDDDLSFLDDNLVYHILRKHSAKRCGCI

How the values were obtained:
[1] = test system: size-sieved stem cells (SSCs) derived from human bone marrow; test: Morphology of SSCs (phase contrast), neuronal-like transformation; assay type: cell-based; details: for morphology of neurites/processes of SSCs: ITS medium, 7 days, GDNF 50 ng/ml, PACAP 20 ng/ml, dbcAMP 0.1 mM, compared to ITS medium alone
Experimental: SSCs were isolated from human bone marrow as described previously (Hung et al. (2002)). In brief, human bone marrow was aspirated from the iliac crest of normal donors, and then washed twice with phosphate-buffered saline (PBS). The cells were loaded into 1.073 g/ml Percoll solution (Sigma®), and then centrifuged at 900 g for 30 min. The mononuclear cells (MNCs) were collected from the interface, and plated at the density of 1×10^6 MNCs/cm^2 onto a 10-cm plastic culture dish comprised of an inserted sieve with 3-μm pores (Transwell System, Corning®). The cells were cultured in Dulbecco's modified Eagle's medium-low glucose (DMFM-LG) containing 10% fetal bovine serum (FBS), 100 U/ml penicillin, […] streptomycin, and 0.25 μg/ml amphotericin B (serum-containing medium). […] However, the cells that passed through the sieve were small, polygonal and had less renewal. SSCs were then harvested with 0.25% trypsin and 1 mM EDTA, and replated on 10-cm culture petri dishes. When SSCs were grown in serum containing medium to 80% confluence, the cells were replated onto 35-mm culture petri dishes at the density of 1×10^5 cells/dish for Western Blotting, or onto 8-well chambers at the density of 1×10^4 cells/well for immunofluorescence.
[…] ITS medium consisted of 56% DMEM-LG (Life Biotech®), 40% MCDB-201 medium (Sigma®), and 1×ITS medium supplement (Sigma®) contained 1 mg/ml insulin, 0.55 mg/ml human transferrin, 0.5 μg/ml sodium selenite, 10 nM dexamethasone (Sigma®), and 10 μM ascorbic acid (Sigma®)). […] However, when SSCs were cultured in serum free medium with ITS supplement, these cells adhered well onto cultured plates and extended their processes. Therefore, treatments were performed in ITS medium.

[2] = test system: size-sieved stem cells (SSCs) derived from human bone marrow; test: Western Blotting of neuron-specific markers (NF-L, NF-H) and α-tubulin in SSCs; assay type: cell-based; details: 7 days in ITS medium; for expression of NF-L protein in SSCs: compared to ITS medium alone
Experimental: This is to study the effects of GDNF, PACAP and dbcAMP on neuronal differentiation of SSC in ITS medium. The levels of neuron-specific markers (NF-L and NF-H) in the SSCs were examined by Western Blotting. The cells were replated at the density of 1×10^5 cells per 35 mm petri dish and cultured for 7 days in ITS medium with GDNF, PACAP or dbcAMP at the distinct concentrations. Cells were harvested and gently homogenized on ice using PBS containing 1% SDS, 1 mM phenylmethyl-sulfonylfluoride (PMSF), 1 mM EDTA, […], […], and […]. Protein concentrations were determined using a Bio-Rad® DC kit. Ten μg of total protein was loaded onto 7.5% SDS-PAGE, and transferred to a nitrocellulous membrane. NF-L (70 kDa) and NF-H (200 kDa) were identified by incubating the membrane with anti-NF antibodies (Chemicon®) overnight at 4° C., followed by horseradish peroxidase-conjugated secondary antibodies and enhanced chemiluminescence solution (NEN LifeScience®).

[3] = test system: size-sieved stem cells (SSCs) derived from human bone marrow; test: Immunofluorescence staining for α-internexin in SSCs; assay type: cell-based; details: 7 days in ITS medium; GDNF 50 ng/ml, PACAP 20 ng/ml, dbcAMP 0.1 mM
Experimental: Immunofluorescence staining for another neuronal intermediate filament protein, α-internexin (FIG. 5), was performed using antibodies against α-internexin (1:200; Chemicon®).

[4] = test system: size-sieved stem cells (SSCs) derived from human bone marrow; test: Immunofluorescence for synapsin-1 in SSCs; assay type: cell-based; details: 7 days in ITS medium; 50 ng/ml GDNF or 20 nM PACAP
Experimental: To detect the morphological change of the SSCs that had been treated with 50 ng/ml GDNF or 20 nM PACAP in ITS medium for 7 days, the SSCs were fixed in PBS-containing 4% paraformaldehyde for 10 minutes. Examination of immunofluorescence for synapsin-1, a synapse vesicle protein, was performed by incubating SSCs with anti-synapsin-1 antibodies (1:200; BD Biosciences®) in PBS-containing 0.1% Triton X-100 and 5% horse serum overnight at 4° C., followed by biotinylated secondary antibodies (1:200; Vector®) and FITC-avidin (1:200; Vector®).

[5] = test system: rats with spinal cord injury (SCI); details: intraspinal injection; cited from earlier work

Molecule | morphology of neurites/processes of SSCs [1] | level of α-tubulin in SSCs [2] | expression of NF-L protein in SSCs [2] | process branching/elongation of SSCs (α-internexin staining) [3] | response of SSCs in DMEM-LG medium without serum ([1]; DMEM-LG medium without serum (no ITS supplement)) | NF-H levels in SSCs [2] | processes of synapsin-1 positive cells [4] | hindlimb recovery [5]
CCCC(=O)Nc1ncnc2c1ncn2[C@@H]1O[C@@H]2COP(=O)(O)O[C@H]2[C@H]1OC(=O)CCC [dbcAMP, dibutyryl cAMP, reference compound] | induced highly branched, elongated, and delicate processes | increased | increased | more extensive branched, elongated processes |  |  |  | 
B1 | further improved the extension of neurites | induces | stimulatory effect | could induce process branching of SSCs to some extent | respond poorly | less effect | extended processes with branching | improved hindlimb recovery
